{"source": "paper PMC5076370", "key": {"[1]": {"biological_target": "active GoxA with mature CTQ (Marinomonas mediterranea)", "assay": "SEC"}, "[2]": {"biological_target": "GoxA precursor protein lacking CTQ (Marinomonas mediterranea)", "assay": "SEC"}}, "data": [{"substance": "active GoxA with mature CTQ (enzyme)", "values": [{"measurement": "stoichiometry N", "setting": "[1]", "result": 2}]}, {"substance": "GoxB (enzyme)", "values": [{"measurement": "stoichiometry N (GoxB per GoxA precursor)", "setting": "[2]", "result": 1}]}]}
